Here are results for one substance from patent US20060020118A1.

The test has as its target human IFNAR1 (first human interferon-alpha receptor), membrane form on cells (human) (UniProt P17181). The test is described as follows: flow cytometry, fluoresceinated control IgG on U266 cells, no soluble hIFNAR1. A general note: A flow cytometer gives signals particle by particle.
UniProt P17181, sequence (P17181 28-557): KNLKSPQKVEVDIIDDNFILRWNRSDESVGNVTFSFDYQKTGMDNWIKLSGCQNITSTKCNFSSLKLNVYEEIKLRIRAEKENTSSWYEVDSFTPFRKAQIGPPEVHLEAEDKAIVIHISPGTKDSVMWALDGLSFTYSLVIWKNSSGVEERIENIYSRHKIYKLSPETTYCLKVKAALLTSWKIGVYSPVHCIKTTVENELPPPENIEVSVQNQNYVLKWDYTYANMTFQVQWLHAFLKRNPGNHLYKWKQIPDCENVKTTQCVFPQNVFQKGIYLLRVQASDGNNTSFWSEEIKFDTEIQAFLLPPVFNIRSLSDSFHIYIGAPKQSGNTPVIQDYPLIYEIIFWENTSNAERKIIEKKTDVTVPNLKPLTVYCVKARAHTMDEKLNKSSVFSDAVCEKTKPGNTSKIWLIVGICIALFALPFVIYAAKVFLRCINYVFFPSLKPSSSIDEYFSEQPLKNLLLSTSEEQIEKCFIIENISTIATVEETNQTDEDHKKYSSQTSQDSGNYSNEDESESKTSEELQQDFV

Substance fluoresceinated control IgG (antibody) yielded a Mean Fluorescence Intensity of 2.99.
